Target: GP ectodomain of EBOV strain Mayinga-76 with a deleted mucin-like domain (EBOV GPΔMuc) (Zaire EBOV strain Mayinga-76)
Experiment: crystal structure

GP ectodomain of EBOV strain Mayinga-76 with a deleted mucin-like domain (EBOV GPΔMuc) (complex)
stoichiometry N: 3

Reference: PMC6158212
